In ChEMBL document CHEMBL4725261, “Design, synthesis and evaluation of carbamate-linked uridyl-based inhibitors of human ST6Gal I” (Bioorg Med Chem, 2020):

Substrate: CC(=O)N[C@H]1[C@H]([C@H](O)[C@H](O)CO)O[C@](OP(=O)(O)OC[C@H]2O[C@@H](n3ccc(N)nc3=O)[C@H](O)[C@@H]2O)(C(=O)O)C[C@@H]1O
Test: Binding affinity to recombinant human N-terminal 6His-tagged ST6Gal-1 (Glu44 to Cys406 residues)

B1: Beta-galactoside alpha-2,6-sialyltransferase 1 (Homo sapiens), P15907 (protein)
chain: MIHTNLKKKFSCCVLVFLLFAVICVWKEKKKGSYYDSFKLQTKEFQVLKSLGKLAMGSDSQSVSSSSTQDPHRGRQTLGSLRGLAKAKPEASFQVWNKDSSSKNLIPRLQKIWKNYLSMNKYKVSYKGPGPGIKFSAEALRCHLRDHVNVSMVEVTDFPFNTSEWEGYLPKESIRTKAGPWGRCAVVSSAGSLKSSQLGREIDDHDAVLRFNGAPTANFQQDVGTKTTIRLMNSQLVTTEKRFLKDSLYNEGILIVWDPSVYHSDIPKWYQNPDYNFFNNYKTYRKLHPNQPFYILKPQMPWELWDILQEISPEEIQPNPPSSGMLGIIIMMTLCDQVDIYEFLPSKRKTDVCYYYQKFFDSACTMGAYHPLLYEKNLVKHLNQGTDEDIYLLGKATLPGFRTIHC
  Km: 37.2 µM
